# Data from patent publication US20240083958A1, “G PROTEIN PEPTIDOMIMETICS” (VRIJE UNIVERSITEIT BRUSSEL, priority 2020, published 2024).
# Like-named read-outs stand apart in the source and are kept apart here. Bridge positions count the residues as written; N and C are the ends. Square brackets hold non-standard residues; d marks the D form. Primed or numbered codes have the meaning given here. Triazole bridges read from a SMILES are 1,4-linked. Peptide text beside a SMILES is read from it. ξ: configuration not given here. Pra″ = alkyne-bearing residue joined to Azk by a CuAAC triazole staple; Azk = residue with azidated side chain, clicked to Pra; Pra′ = residue with alkynyl side chain, clicked to Azk; Lys(N3) = [N-]=[N+]=NCCCC[C@H](N)C(=O)O; 1Nal = N[C@@H](Cc1cccc2ccccc12)C(=O)O; Cha = N[C@@H](CC1CCCCC1)C(=O)O; Ile(3ξ) = CCC(C)[C@H](N)C(=O)O; Pra = C#CC[C@H](N)C(=O)O
# What was measured:
# [1] = target: T1, human β2AR (Homo sapiens, UniProt P07550, N187E); test: Radioligand binding assay (RLA) with human β2AR, 3H-dihydroalprenolol (DHA) as radioligand, isoproterenol (agonist) as cold competitor, in presence and absence of the peptidomimetic; parameters: key to Shift: ratio IC50 basal (no peptide) / IC50 with peptidomimetic
# T1 construct: made in house; host or cells: Sf9 insect cells (Bac-to-Bac baculovirus); membrane extracts
# Description: β2AR365N constructs were expressed in Sf9 insect cells, using the Bac-to-Bac® Baculovirus Expression System. The membrane extracts were prepared from cells that expressed β2AR. Subsequently, the cell pellet was resuspended in a buffer (1 ml buffer/2×1E7 cells) containing 75 mM Tris pH 7.4, 12.5 mM MgCl2, 1 mM EDTA, Leupeptin and PMSF as protease inhibitors. Afterwards the cells were vortexed and homogenized in ice using a small volume Ultraturrax (6×10 sec). The cells were then centrifuged for 15 min at 16000 rcf, in a pre-cooled centrifuge (4° C.) and resuspended in the previous buffer containing 10% sucrose. Finally, the membranes were again homogenized in ice with the small volume Ultraturrax (3×10 sec). The protein concentration in the membrane fragments was determined using a Pierce BCA Protein Assay Kit and the protein concentration was extrapolated from the Bovine Serum Albumine standard curve.
# To perform the radioligand competition binding assays, 96-well plates were used. For the assays on β2AR, the membrane extracts as well as the peptides were prepared in a binding buffer (75 mM Tris pH 7.4, 12.5 mM MgCl2, 1 mM EDTA, 0.2% BSA). The ligand (isoproterenol) and radioligand ([^3H]-dihydroalprenolol) were dissolved in ligand buffer (75 mM Tris pH 7.4, 12.5 mM MgCl2, 1 mM EDTA, 0.2% BSA and 0.1% ascorbic acid), at 1 mM and 2 nM, respectively. A ten-fold dilution series of the ligand was prepared to obtain a dose response curve. For each reaction 100 μl membrane extract, 50 μl ligand, 50 μl peptide or binding buffer containing 1% DMSO and 50 μl of radioligand was added to the V-bottom storage plate, with a total volume of 250 μl per well. Afterwards, the plates were incubated at room temperature for 2 h on a plate shaker (150 rpm). The samples were harvested into filter plates and washed with ice cold washing buffer (75 mM Tris pH 7,4) using the 96-well harvester. The plates were dried for 1 h at 50° C. and then sealed to allow the addition of 30 μl scintillation liquid to each well. Finally, the top of each plate was sealed and the plates were placed in a Wallac MICROBETA® Trilux scintillation counter and incubated for 30 min in the dark.
# After the Microbeta scintillation counter, the experimental data was further analyzed using Graphpad Prism 6.0. After normalization of the raw data, a nonlinear regression was used to fit the data in a one-site binding model, with the total binding set as 100% and the non-specific binding between 0 and 5%. The IC50 values, obtained from the competition curves, were used to determine the shift for each peptide, which is the ratio of IC50 of the agonist test compound on the basal conformation (e.g. IC50 β2AR with no peptidomimetic) versus the active conformation (e.g. IC50 β2AR+peptidomimetic) of the receptor. For certain peptide analogues, a biphasic binding curve was observed and therefore fitted by a two-site model (nonlinear regression), resulting in two IC50 values (IC50Hi and IC50Lo) and a FractionHi, the fraction of receptors in the active state.
# Synthesised peptidomimetics were evaluated using a radioligand binding assay (RLA) with a human β2AR, using ^3H-dihydroalprenolol (DHA) as the radioligand and increasing concentrations of isoproterenol (agonist) as cold competitor. In particular, the pharmacological stabilization of the receptor in the active conformation was evaluated by performing the radioligand displacement assay (RLA) in the presence and absence of the peptidomimetics. This validated assay quantifies the pharmacological stabilization of the receptor in the active conformation by comparing the affinities of an agonist for the basal versus the active GPCR conformer (Pardon et al. (2018) Angewandte Chemie International Edition 57, 5292-5295). During the assay, the binding affinity of an orthosteric agonist for the receptor, in particular isoproterenol for human β2AR, in presence and absence of the allosteric peptidomimetic was determined. […]
# [2] = target: T2, human β2AR (human, UniProt P07550 2-365); test: cell-based or functional assay
# [3] = target: T2, human β2AR; test: cell-based or functional assay; remark: listed apart in the source
# [4] = target: T2, human β2AR; test: cell-based or functional assay; remark: listed apart in the source
# [5] = target: T2, human β2AR; test: cell-based or functional assay; remark: listed apart in the source
# [6] = target: T2, human β2AR; test: cell-based or functional assay; remark: listed apart in the source
# [7] = target: T2, human β2AR; test: cell-based or functional assay; remark: listed apart in the source
# [8] = Table 18a overview, averaged values of IC50 shift
# [9] = Table 18b overview, averaged values of IC50 shift
molecule,measurement,setting,value
"CCC(C)[C@@H]1NC(=O)[C@@H](NC(=O)[C@H](CC(=O)O)NC(=O)[C@H](CCCNC(=N)N)NC(=O)[C@H](CS)NC(=O)[C@H](CC(=O)O)NC(=O)[C@H](CC(N)=O)NC(=O)[C@H](Cc2ccccc2)NC(C)=O)CCC(=O)NCCCC[C@@H](C(=O)N[C@@H](Cc2c[nH]cn2)C(=O)N[C@@H](CC(C)C)C(=O)N[C@@H](CCCNC(=N)N)C(=O)N[C@@H](CCC(N)=O)C(=O)N[C@@H](Cc2ccc(O)cc2)C(=O)N[C@@H](CCC(=O)O)C(=O)N[C@@H](CC(C)C)C(=O)N[C@@H](CC(C)C)C(=O)O)NC(=O)[C@H](CCCNC(=N)N)NC(=O)[C@H](CCC(N)=O)NC1=O (stereo partly shown) [compound 5, Ac-FNDCRD[EIQRK]HLRQYELL-OH] (HELM PEPTIDE1{[ac].F.N.D.C.R.D.E.[CCC(C)[C@H](N[*:1])C(=O)[*:2]].Q.R.K.H.L.R.Q.Y.E.L.L}$PEPTIDE1,PEPTIDE1,8:R3-12:R3$$$V2.0)",Shift,"[1]; Table 3, ratio IC50 β2AR alone / IC50 β2AR + peptidomimetic",4
same,Shift,[1]; [8],4
"QRMHLRQYELL [compound 21, Ac-QRMHLRQYELL-OH]",Shift,"[1]; Table 1, ratio IC50 β2AR alone / IC50 β2AR + peptidomimetic",1
same,Shift,[1]; [9],1
Ac-FN[S5CRDS5]IQRMHLRQYELL-OH [compound 26],Shift,"[1]; Table 6, ratio IC50 β2AR alone / IC50 β2AR + peptidomimetic",2
same,Shift,[1]; [8],2
"CCC(C)[C@@H]1NC(=O)[C@@H](NC(=O)[C@H](CC(=O)O)NC(=O)[C@H](CCCNC(=N)N)NC(=O)[C@H](CS)NC(=O)[C@H](CC(=O)O)NC(=O)[C@H](CC(N)=O)NC(=O)[C@H](Cc2ccccc2)NC(C)=O)Cc2cn(nn2)CCCC[C@@H](C(=O)N[C@@H](Cc2c[nH]cn2)C(=O)N[C@@H](CC(C)C)C(=O)N[C@@H](CCCNC(=N)N)C(=O)N[C@@H](CCC(N)=O)C(=O)N[C@@H](Cc2ccc(O)cc2)C(=O)N[C@@H](CCC(=O)O)C(=O)N[C@@H](CC(C)C)C(=O)N[C@@H](CC(C)C)C(=O)O)NC(=O)[C@H](CCCNC(=N)N)NC(=O)[C@H](CCC(N)=O)NC1=O (stereo partly shown) [compound 11, Ac-FNDCRD[PraIQRAzk]HLRQYELL-OH] (Ac-FNDCRD[Pra][Ile(3ξ)]QR[Lys(N3)]HLRQYELL-OH; triazole 7-11)",Shift,"[1]; Table 5, ratio IC50 β2AR alone / IC50 β2AR + peptidomimetic",7
same,Shift,[1]; [8],7
Ac-KKKFN[PraCRDAzk]IQRMHLRQ1-NaIELL-OH (Ac-KKKFN[Pra′]CRD[Azk]IQRMHLRQ[1Nal]ELL-OH; triazole 6-10) [compound 57],Shift,"[1]; Table 18c overview, averaged values of IC50 shift",49
Ac-RDIIQR[AzkHLRPra]YELL-OH (Ac-RDIIQR[Azk]HLR[Pra′]YELL-OH; triazole 7-11) [compound 19],Shift,[1]; [9],5
Ac-FNDCRDIIQRMHLRQYEFL-OH [compound 68],Fraction HI (%),[2],62%
same,"IC50 (nM) of isoproterenol, [3H]-DHA RLA, peptidomimetic present",[2],54.6 nM
same,Shift,[2],29
same,Shift (averaged),[3],35
Ac-FNDCRDIIQRMHLRQYEWL-OH [compound 69],Fraction HI (%),[2],51%
same,"IC50 (nM) of isoproterenol, [3H]-DHA RLA, peptidomimetic present",[2],28.9 nM
same,Shift,[2],55
same,Shift (averaged),[3],27
Ac-KKFN[Pra]CRD[Lys(N3)]IQRMHLRQYE[Cha]L-OH (triazole 5-9) [compound 74],Fraction HI (%),[4],89%
same,"IC50 (nM) of isoproterenol, [3H]-DHA RLA, peptidomimetic present",[4],4.7 nM
same,Shift,[4],350
same,Shift (averaged),[3],350
Ac-FNDCRDIIQRMHLRQYEAL-OH [compound 76],"IC50 (nM) of isoproterenol, [3H]-DHA RLA, peptidomimetic present",[5],1070 nM
same,Shift,[5],1
same,Shift (averaged),[3],1
Ac-FNDCRDIIQRMHLRQYALL-OH [compound 77],"IC50 (nM) of isoproterenol, [3H]-DHA RLA, peptidomimetic present",[5],175 nM
same,Shift,[5],5
same,Shift (averaged),[3],5
Ac-KFN[Pra′]CRD[Azk]IQRMHLRQYELL-OH (triazole 4-8) [compound 41],"IC50 (nM) of isoproterenol, [3H]-DHA RLA, peptidomimetic present",[6],26 nM
same,Shift,[6],44
same,Shift (averaged),[3],51
Ac-FN[Pra′]CRD[Azk]IQRMHLRQYELL-OH [compound 22],Shift (averaged),[7],9
Ac-FNDCRDIIQRMHLRQYELA-OH [compound 79],"IC50 (nM) of isoproterenol, [3H]-DHA RLA, peptidomimetic present",[5],849 nM
same,Shift,[5],1
same,Shift (averaged),[3],1
Ac-KFN[Pra′]CRD[Azk]IQRMHLRQYE[Cha]L-OH (triazole 4-8) [compound 50],Fraction HI (%),[4],86%
same,"IC50 (nM) of isoproterenol, [3H]-DHA RLA, peptidomimetic present",[4],2.6 nM
same,Shift,[4],616
same,Shift (averaged),[3],373
Ac-RFN[Pra′]CRD[Azk]IQRMHLRQYELL-OH (triazole 4-8) [compound 40],"IC50 (nM) of isoproterenol, [3H]-DHA RLA, peptidomimetic present",[6],31.3 nM
same,Shift,[6],37
same,Shift (averaged),[3],37
Ac-FNDCRDIIQRMHLRQAELL-OH [compound 78],"IC50 (nM) of isoproterenol, [3H]-DHA RLA, peptidomimetic present",[5],616 nM
same,Shift,[5],1
same,Shift (averaged),[3],1
Ac-KKKFN[Pra″]CRD[Lys(N3)]IQRMHLRQYEFL-OH (triazole 6-10) [compound 62],Fraction HI (%),[2],91%
same,"IC50 (nM) of isoproterenol, [3H]-DHA RLA, peptidomimetic present",[2],17.1 nM
same,Shift,[2],93
same,Shift (averaged),[3],87
